Results reported in patent publication US4753882A, “Urease and process for preparation thereof” (Sapporo Breweries Limited, priority 1986, dated 1988).

Substrate: NC(N)=O
Assay: Km determination of urease by the GlDH method
Assay type: biochemical, Bacillus sp. TB-90
Settings: other: GlDH method, 40 mM Tris-HCl buffer pH 8.0, 37° C.
Protocol: A reaction solution consisting of 100 millimoles (mM) of urea, 40 mM of Tris-HCl buffer (pH 8.0), 0.86 mM of α-ketoglutaric acid, 0.31 mM of NADPH and 17.2 unit per milliliter (U/ml) of glutamate dehydrogenase (GlDH) was maintained at 37° C. Then an enzyme solution to be measured was added to the reaction solution to initiate the reaction, and a rate of decrease in absorbance at 37° C., E340 nm, was measured. All the concentrations are indicated in their final concentrations. A rate of decrease in NADPH was calculated from the rate of decrease in absorbance E340 nm, and the amount of ammonia formed by the action of urease was calculated from the rate of decrease in absorbance E340 nm.
In connection with enzyme activity, an amount of the enzyme forming 2 micromoles (μmole) of ammonia per minute was defined as one unit (1 U). This definition was calculated based on experiments carried out under the conditions described in the aforementioned GlDH method.
The Km value as determined under the conditions of the aforementioned GlDH method was about 0.3 mM for urea.

B1: urease (EC 3.5.1.5) from Bacillus sp. Strain TB-90 (FERM BP-795) (Bacillus sp. TB-90) (protein)
chain: MSFSMSRKQYADMFGPTVGDAIRLADSELFIEIEKDYTTYGDEVKFGGGKVIRDGMGQHPLATSDECVDLVLTNAIIVDYTGIYKADIGIKDGMIASIGKAGNPLLMDGVDMVIGAATEVIAAEGMIVTAGGIDAHIHFICPQQIETALASGVTTMIGGGTGPATGTNATTCTPGPWNIHRMLQAAEEFPINLGFLGKGNCSDEAPLKEQIEAGAVGLKLHEDWGSTAAAIDTCLKVADRYDVQVAIHTDTLNEGGFVEDTLKAIDGRVIHTYHTEGAGGGHAPDIIKAAGFPNILPSSTNPTRPYTINTLEEHLDMLMVCHHLDANIPEDIAFADSRIRKETIAAEDVLHDLGVFSMISSDSQAMGRVGEVIIRTWQTADKMKKQRGKLQEDNGVGDNFRVKRYIAKYTINPAIAHGIADYVGSVEVGKLADLVVWNPAFFGVKPELVLKGGMIAYSTMGDPNASIPTPQPVLYRPMFAAKGDAKYQTSITFVSKAAYEKGIHEQLGLKKKVKPVHGIRKLTKKDLILNDKTPKIDVDPQTYEVKVDGQLVTCEPAEIVPMAQRYFLF
Q: B1 was tested. Which Km did it give?
A: 300 µM
